Among the data in patent US20050042205A1 are EC50 of cAMP production values, retold here.

This assay addresses rat luteal LH/CG receptor (LH/CG-R) expressed from the cloned cDNA (expression vector pCLHR) in transiently transfected human kidney 293 cells (rat) (UniProt P16235).

“human choriogonadotropin, highly purified (CR-123; 12,780 IU/mg) (from UniProt P01215) (ligand)”: the EC50 of cAMP production lay within 0.04 to 0.08 nM.
